The target in experiment [1] is T1, integrin αvβ5 (UniProt P06756 31-1048; P18084 24-799, limits assumed).
T1 construct: whole, on cells; Endogenous on MCF-7 and THP-1 cells (human cell lines); also called integrin-receptor
Put plainly: flow cytometry, fluorescein labeled protein on MCF-7 and THP-1 cells.

The target in experiment [2] is T2, integrin αvβ3 (UniProt P06756 31-1048; P05106 27-788, limits assumed).
T2 construct: whole, on cells; Endogenous on MCF-7 and THP-1 cells (human cell lines); also called integrin-receptor
T2 sequence (P06756 31-1048 limits assumed, chain 1 of 2): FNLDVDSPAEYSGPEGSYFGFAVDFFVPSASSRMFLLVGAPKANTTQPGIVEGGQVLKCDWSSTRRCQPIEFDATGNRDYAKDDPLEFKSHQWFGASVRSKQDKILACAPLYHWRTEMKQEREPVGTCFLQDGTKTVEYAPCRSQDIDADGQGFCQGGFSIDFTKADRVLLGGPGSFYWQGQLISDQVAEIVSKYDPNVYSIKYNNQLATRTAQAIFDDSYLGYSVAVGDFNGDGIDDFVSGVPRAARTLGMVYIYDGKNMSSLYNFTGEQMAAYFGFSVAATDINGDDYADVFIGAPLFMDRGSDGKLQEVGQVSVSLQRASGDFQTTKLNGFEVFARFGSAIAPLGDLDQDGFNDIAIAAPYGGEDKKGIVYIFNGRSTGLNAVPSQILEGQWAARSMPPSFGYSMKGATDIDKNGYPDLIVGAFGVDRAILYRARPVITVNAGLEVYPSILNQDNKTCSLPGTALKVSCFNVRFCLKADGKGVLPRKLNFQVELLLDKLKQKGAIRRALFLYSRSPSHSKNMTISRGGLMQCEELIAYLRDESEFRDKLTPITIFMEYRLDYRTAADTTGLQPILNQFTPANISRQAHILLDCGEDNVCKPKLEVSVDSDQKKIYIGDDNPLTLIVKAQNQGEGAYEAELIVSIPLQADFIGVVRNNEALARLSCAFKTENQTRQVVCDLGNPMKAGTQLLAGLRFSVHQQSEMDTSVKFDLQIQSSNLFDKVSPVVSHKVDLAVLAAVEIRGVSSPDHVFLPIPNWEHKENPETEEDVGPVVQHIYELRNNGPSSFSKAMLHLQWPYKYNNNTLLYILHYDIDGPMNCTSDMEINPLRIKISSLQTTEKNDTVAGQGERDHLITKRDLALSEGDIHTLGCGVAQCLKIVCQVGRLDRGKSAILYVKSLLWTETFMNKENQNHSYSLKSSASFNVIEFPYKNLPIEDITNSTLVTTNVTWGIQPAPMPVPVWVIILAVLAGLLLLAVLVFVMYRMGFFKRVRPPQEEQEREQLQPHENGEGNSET
T2 sequence (P05106 27-788 limits assumed, chain 2 of 2): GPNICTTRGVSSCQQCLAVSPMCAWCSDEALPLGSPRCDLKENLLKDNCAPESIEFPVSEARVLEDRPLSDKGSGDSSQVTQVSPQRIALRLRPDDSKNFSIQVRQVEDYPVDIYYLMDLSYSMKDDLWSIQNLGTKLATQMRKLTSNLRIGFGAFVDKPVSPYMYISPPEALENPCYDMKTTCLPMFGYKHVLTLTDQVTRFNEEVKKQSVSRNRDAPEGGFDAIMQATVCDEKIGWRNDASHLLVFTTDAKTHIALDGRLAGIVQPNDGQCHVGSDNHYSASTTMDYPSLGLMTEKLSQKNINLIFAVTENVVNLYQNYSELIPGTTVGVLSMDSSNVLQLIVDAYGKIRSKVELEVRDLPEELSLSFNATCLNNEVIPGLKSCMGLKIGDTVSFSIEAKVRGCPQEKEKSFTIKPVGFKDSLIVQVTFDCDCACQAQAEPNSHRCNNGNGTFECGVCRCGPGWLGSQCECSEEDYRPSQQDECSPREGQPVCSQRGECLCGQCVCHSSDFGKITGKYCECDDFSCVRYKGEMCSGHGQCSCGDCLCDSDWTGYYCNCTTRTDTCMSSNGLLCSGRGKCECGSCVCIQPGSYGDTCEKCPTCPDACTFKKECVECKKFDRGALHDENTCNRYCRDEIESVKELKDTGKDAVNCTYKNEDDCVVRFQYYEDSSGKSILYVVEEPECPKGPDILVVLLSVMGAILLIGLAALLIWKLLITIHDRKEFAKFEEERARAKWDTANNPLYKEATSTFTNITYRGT
The description is as above.

T1 sequence (P06756 31-1048 limits assumed, chain 1 of 2): as the sequence (P06756 31-1048 limits assumed, chain 1 of 2) above
T1 sequence (P18084 24-799 limits assumed, chain 2 of 2): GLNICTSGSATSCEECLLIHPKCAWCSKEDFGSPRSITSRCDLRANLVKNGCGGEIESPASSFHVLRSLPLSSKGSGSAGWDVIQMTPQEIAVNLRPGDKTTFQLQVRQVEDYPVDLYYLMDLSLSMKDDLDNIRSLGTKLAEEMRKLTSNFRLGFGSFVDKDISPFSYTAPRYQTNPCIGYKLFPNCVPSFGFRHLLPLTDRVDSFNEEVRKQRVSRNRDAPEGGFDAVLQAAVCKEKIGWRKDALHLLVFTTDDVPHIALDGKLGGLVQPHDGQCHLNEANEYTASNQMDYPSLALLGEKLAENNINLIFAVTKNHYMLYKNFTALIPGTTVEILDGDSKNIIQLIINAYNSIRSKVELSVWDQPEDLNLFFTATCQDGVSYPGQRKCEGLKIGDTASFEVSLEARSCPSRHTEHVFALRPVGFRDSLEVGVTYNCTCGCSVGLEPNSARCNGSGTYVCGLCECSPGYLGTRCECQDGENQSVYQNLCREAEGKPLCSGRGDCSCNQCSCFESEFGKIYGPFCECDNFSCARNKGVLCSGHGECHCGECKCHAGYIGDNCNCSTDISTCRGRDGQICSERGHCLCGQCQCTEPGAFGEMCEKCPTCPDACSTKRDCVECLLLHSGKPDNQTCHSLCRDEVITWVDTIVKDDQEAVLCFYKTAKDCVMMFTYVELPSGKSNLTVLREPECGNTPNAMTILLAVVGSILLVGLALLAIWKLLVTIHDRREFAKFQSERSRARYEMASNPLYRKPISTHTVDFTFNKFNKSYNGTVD

B1: annexin A5-T7D variant (other)
chain: AQVLRGDVTDFPGFDERADAETLRKAMKGLGTDEESILTLLTSRSNAQRQEISAAFKTLFGRDLLDDLKSELTGKFEKLIVALMKPSRLYDAYELKHALKGAGTNEKVLTEIIASRTPEELRAIKQVYEEEYGSSLEDDVVGDTSGYYQRMLVVLLQANRDPDAGIDEAQVEQDAQALFQAGELKWGTDEEKFITIFGTRSVSHLRKVFDKYMTISGFQIEETIDRETSGNLEQLLLAVVKSIRSIPAYLAETLYYAMKGAGTDDHTLIRVMVSRSEIDLFNIRKEFRKNFATSLYSMIKGDTSGDYKKALLLLCGEDD
modifications: fluorescein (FITC) label, site not stated
notes: Made in E. coli and purified; also called T7D anxA5; RGD-anxA5
As to B1, the binding result in experiment [1] and in experiment [2] was “binds” in each case.

The record behind these values is patent US20120094895A1 (MOSAMEDIX B V, published 2012).
